# Measured values reported in article PMC12884786, “Evolution of Multivalent Aptamer Corona for High‐Throughput Multiplexed Detection of Multiple Cancers”.
# T1: serum amyloid A2 (human, UniProt P0DJI9 19-122)
# T1 sequence: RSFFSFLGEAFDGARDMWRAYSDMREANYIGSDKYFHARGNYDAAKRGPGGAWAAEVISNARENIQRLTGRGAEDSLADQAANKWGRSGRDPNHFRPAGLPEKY
# T2: vitamin K-dependent protein S (human, UniProt P07225 42-676)
# T2 sequence: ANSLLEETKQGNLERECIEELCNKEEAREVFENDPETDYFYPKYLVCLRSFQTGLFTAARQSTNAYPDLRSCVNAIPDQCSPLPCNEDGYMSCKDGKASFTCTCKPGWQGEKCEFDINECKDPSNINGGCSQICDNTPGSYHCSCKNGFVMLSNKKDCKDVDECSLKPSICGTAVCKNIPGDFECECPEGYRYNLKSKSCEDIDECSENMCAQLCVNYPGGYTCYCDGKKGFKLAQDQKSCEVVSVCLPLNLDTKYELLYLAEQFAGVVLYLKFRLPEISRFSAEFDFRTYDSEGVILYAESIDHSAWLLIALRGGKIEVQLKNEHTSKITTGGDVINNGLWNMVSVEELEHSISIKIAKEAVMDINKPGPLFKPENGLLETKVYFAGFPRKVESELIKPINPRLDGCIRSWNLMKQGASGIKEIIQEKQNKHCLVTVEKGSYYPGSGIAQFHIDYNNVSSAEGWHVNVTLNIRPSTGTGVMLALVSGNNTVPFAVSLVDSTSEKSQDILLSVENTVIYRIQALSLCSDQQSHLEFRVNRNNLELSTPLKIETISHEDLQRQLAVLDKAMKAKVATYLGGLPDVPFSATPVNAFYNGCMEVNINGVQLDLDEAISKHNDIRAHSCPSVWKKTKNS
# T3: histidine-rich glycoprotein (human, UniProt P04196 19-525)
# T3 sequence: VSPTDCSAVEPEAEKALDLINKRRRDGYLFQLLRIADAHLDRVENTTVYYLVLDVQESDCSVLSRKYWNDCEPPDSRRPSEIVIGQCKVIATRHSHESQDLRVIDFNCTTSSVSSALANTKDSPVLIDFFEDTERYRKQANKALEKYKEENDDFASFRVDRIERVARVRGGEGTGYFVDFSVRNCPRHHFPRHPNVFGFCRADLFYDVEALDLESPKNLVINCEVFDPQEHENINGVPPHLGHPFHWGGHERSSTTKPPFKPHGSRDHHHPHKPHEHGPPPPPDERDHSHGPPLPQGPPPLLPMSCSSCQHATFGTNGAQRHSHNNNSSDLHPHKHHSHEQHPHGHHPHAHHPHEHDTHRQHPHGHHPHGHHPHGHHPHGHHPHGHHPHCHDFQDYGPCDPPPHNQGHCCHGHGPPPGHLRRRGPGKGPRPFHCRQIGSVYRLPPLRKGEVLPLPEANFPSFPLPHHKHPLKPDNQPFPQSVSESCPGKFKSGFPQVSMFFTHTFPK
# B1: CRC5 (ssDNA)
# DNA: CAGCACCGTCAACTGAATCCTGCGGGCGGGTGGGTGGTTGGATTCTTGGTGATGCGATGGAGATGT
# B2: OV2 (ssDNA)
# DNA: CAGCACCGTCAACTGAATGTGGGTGGGTGGGTGGTAAGTTGTGCCGACGTGATGCGATGGAGATGT
# B3: CRC4 (ssDNA)
# DNA: CAGCACCGTCAACTGAATGCTGAGGGCGGGTGGGTGGCACATTCGATGGTGATGCGATGGAGATGT
# B4: OV10 (ssDNA)
# DNA: CAGCACCGTCAACTGAATGAGGTGGGAGGGAGGGGTTGACCTTGCGTGGTGATGCGATGGAGATGT
# B5: CRC7 (ssDNA)
# DNA: CAGCACCGTCAACTGAATCGGCGGGTGGGTGGGCGGAGATTTAACGTCGTGATGCGATGGAGATGT
# B6: OV8 (ssDNA)
# DNA: CAGCACCGTCAACTGAATGAGTCGCGGGTGGGTGGGTGGCCTTGCTCGGTGATGCGATGGAGATGT
# How the values were obtained:
# Experiment in all cases: SPR; 5 mM Mg2+; SPR (Biacore 8K, CM5 chip, protein immobilized): DPBS with 5 mM Mg2+, 25 C; aptamer 0-1000 nM; pH not stated
# Details in all cases: protein: commercial
# [1] = biological target: complement factor H-related protein 1 (human, UniProt Q03591 19-330)
# [2] = biological target: complement C1q subcomponent subunit B (human, UniProt P02746 28-253)
# apolipoprotein C-III = apolipoprotein C-III (human, UniProt P02656 21-99)
# serum amyloid A2 = biological target: T1, serum amyloid A2
# [3] = biological target: T2, vitamin K-dependent protein S
# [4] = biological target: T3, histidine-rich glycoprotein
# complement factor H-related protein 1, sequence (Q03591 19-330): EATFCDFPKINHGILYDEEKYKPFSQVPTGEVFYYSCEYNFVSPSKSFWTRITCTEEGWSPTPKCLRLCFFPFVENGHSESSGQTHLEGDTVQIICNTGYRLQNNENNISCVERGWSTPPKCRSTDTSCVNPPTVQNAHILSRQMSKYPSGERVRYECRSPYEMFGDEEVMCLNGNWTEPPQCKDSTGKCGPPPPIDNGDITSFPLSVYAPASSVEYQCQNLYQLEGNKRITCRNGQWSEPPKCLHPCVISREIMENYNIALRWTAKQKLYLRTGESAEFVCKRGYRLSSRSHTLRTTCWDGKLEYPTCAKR
# apolipoprotein C-III, sequence (P02656 21-99): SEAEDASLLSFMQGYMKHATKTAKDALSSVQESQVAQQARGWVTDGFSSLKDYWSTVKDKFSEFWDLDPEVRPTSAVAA
# complement C1q subcomponent subunit B, sequence (P02746 28-253): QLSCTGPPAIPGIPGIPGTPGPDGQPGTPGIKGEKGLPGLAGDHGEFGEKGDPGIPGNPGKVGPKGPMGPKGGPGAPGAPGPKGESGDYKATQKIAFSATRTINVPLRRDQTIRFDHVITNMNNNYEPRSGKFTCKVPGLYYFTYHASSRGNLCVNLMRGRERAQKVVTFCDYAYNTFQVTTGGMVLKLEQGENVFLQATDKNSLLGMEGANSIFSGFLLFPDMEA
binder,measurement,setting,value
B1,binding result,[1],binds
B2,binding result,[2],binds
B3,binding result,apolipoprotein C-III,binds
B4,binding result,serum amyloid A2,binds
B5,binding result,[3],binds
B6,binding result,[4],binds
